Assay [1] addresses EGFR and EGFRvIII on GBM39 cells (patient derived xenograft glioblastoma line). Nature of the assay: flow cytometry on GBM39 cells, antibody at 0.2 µg/ml.
The target in assay [2] is EGFR loop peptide, His-tagged (EGFRlp-HIS) (human). Nature of the assay: BLI (Octet Red96), His-tagged antigen on Ni-NTA biosensors, antibody in solution, 30 C.
In assay [3] the target is EGFR and EGFRvIII on GBM39 cells (patient derived xenograft glioblastoma line). Kind of assay: flow cytometry on GBM39 cells, antibody at 2 µg/ml. Background: A flow cytometer gives signals particle by particle.
Assay [4] shares this target. Kind of assay: flow cytometry on GBM39 cells, antibody at 20 µg/ml.
Assay [5] concerns the target EGFR loop peptide, His-tagged (EGFRlp-HIS) (human). Kind of assay: BLI (Octet Red96), His-tagged antigen on Ni-NTA biosensors, conjugate in solution, 30 C. (In general: In BLI a coated tip is dipped into the sample, and binding shifts an interference pattern.)
Assay [6] has as its target EGFRvIII on F98npEGFRvIII cells (rat glioma F98 transfected with nonphosphorylated EGFRvIII). Nature of the assay: flow cytometry, antibodies added at 2 µg/ml, F98-npEGFRvIII cells.

B1: monoclonal antibody 40H3 (antibody, V domains shown)
VH: QVQLKQSGPGLVQPSQSLSITCTVSGFSLTNYGIHWLRQSPGKGLEWLGMMWRGGGTDYNAAFISRLTITKDTSKSQVFFRMNNLQTNDTAIYYCARKGVGMGLGYWGQGTSVTVSS
VL: DIQMTQSPASQSASLGESVTITCLASQTIGTWVAWYQQKPGRSPQLLIYGATNLADGVPSRFSGSGSGTKFSFKISSLQAEDFVSYYCQQLYSNPYTFGGGTKLEIK
Usually Kd stands for a measure of binding affinity in units of concentration. In general, koff refers to the rate constant with which the complex falls apart. A word on the kon: it is a measure of how fast the partners come together. As for B1, in assay [1], the median fluorescent intensity is 9450. In assay [2], this molecule had an equilibrium dissociation constant (Kd) of 1.11 nM, a koff of 6.07e-05 s⁻¹ and a kon of 54900 M⁻¹ s⁻¹. The median fluorescent intensity in assay [3] is 10700. Besides, the median fluorescent intensity in assay [4] worked out at 8600.

B2: 40H3 DM1 antibody drug conjugate (antibody, V domains shown)
VH: B1 VH
VL: B1 VL
In assay [5], B2 returned a dissociation constant (Kd) of 0.442 nM, a koff of 8.95e-05 s⁻¹ and a kon of 202000 M⁻¹ s⁻¹.

B3: 40H3 MMAE antibody drug conjugate (antibody, V domains shown)
VH: B1 VH
VL: B1 VL
In assay [5], B3 displayed a Kd of 0.0846 nM, a koff of 2.24e-05 s⁻¹ and a kon of 265000 M⁻¹ s⁻¹.

B4: monoclonal antibody 11G3 (antibody, V domains shown)
VH: QVQLKQSGPSLVQPSQSLSITCTVSGFSLTNYGVHWVRQSPGKGLEWLGVMWRGGRTDYNAAFMSRLSITKDNSRSQVFFKMNSLQTDDAAIYYCAKNGPFGNFAGYWGQGTLVTVST
VL: DIVMSQSPSSLPVSVGEKVSLTCKSSRSLLDNQKHYLAWYQQKPGQSPKLLIYWASTRESGVPDRFTGSGSGTEFTLTISSVKAEDLAVYYCQQFYNYPYTFGGGTKLEIK
In assay [6], B4 showed a Median : PE-A of 1080.

The values above are taken from US20260193363A1.
